This is an account of results in article PMC2978023 (Journal of immunology (Baltimore, Md. : 1950), 2008).

The test system of one assay is PMN. The following applies: cited from earlier work.
A further assay relates to monocytes. The following applies: PAR-1-dependent; ref [29]; cited from earlier work.
A further assay deals with human PMNs. The following applies: PMN; data not shown.

B1: Fas ligand: promotes PMN death via interaction with its receptor on the cell surface (protein, UniProt P48023 130-281, looked up)
Tumor necrosis factor ligand …: QIGHPSPPPEKKELRKVAHLTGKSNSRSMPLEWEDTYGIVLLSGVKYKKGGLVINETGLYFVYSKVYFRGQSCNNLPLSHKVYMRNSKYPQDLVMMEGKMMSYCTTGQMWARSSYLGAVFNLTSADHLYVNVSELSLVNFEESQTFFGLYKL
B1: the “effect on PMN death” value in the assay with PMN is recorded as “promote PMN death”.

B2: plasmin (protein, UniProt P00747 20-580; P00747 581-810, looked up)
Plasmin heavy chain A: EPLDDYVNTQGASLFSVTKKQLGAGSIEECAAKCEEDEEFTCRAFQYHSKEQQCVIMAENRKSSIIIRMRDVVLFEKKVYLSECKTGNGKNYRGTMSKTKNGITCQKWSSTSPHRPRFSPATHPSEGLEENYCRNPDNDPQGPWCYTTDPEKRYDYCDILECEEECMHCSGENYDGKISKTMSGLECQAWDSQSPHAHGYIPSKFPNKNLKKNYCRNPDRELRPWCFTTDPNKRWELCDIPRCTTPPPSSGPTYQCLKGTGENYRGNVAVTVSGHTCQHWSAQTPHTHNRTPENFPCKNLDENYCRNPDGKRAPWCHTTNSQVRWEYCKIPSCDSSPVSTEQLAPTAPPELTPVVQDCYHGDGQSYRGTSSTTTTGKKCQSWSSMTPHRHQKTPENYPNAGLTMNYCRNPDADKGPWCFTTDPSVRWEYCNLKKCSGTEASVVAPPPVVLLPDVETPSEEDCMFGNGKGYRGKRATTVTGTPCQDWAAQEPHRHSIFTPETNPRAGLEKNYCRNPDGDVGGPWCYTTNPRKLYDYCDVPQCAAPSFDCGKPQVEPKKCPGR
Plasmin light chain B: VVGGCVAHPHSWPWQVSLRTRFGMHFCGGTLISPEWVLTAAHCLEKSPRPSSYKVILGAHQEVNLEPHVQEIEVSRLFLEPTRKDIALLKLSSPAVITDKVIPACLPSPNYVVADRTECFITGWGETQGTFGAGLLKEAQLPVIENKVCNRYEFLNGRVQSTELCAGHLAGGTDSCQGDSGGPLVCFEKDKYILQGVTSWGLGCARPNKPGVYVRVSRFVTWIEGVMRNN
modifications: Plasmin
Take B2: the “effect on TNF-α-induced apoptosis in monocytes” value with monocytes is recorded as “inhibits TNF-α-induced apoptosis in monocytes”. In addition, in the assay with human PMNs, the “prosurvival/cytoprotective effect on PMN (in words)” value was “did not exert a cytoprotective function”.
